Where two headings read alike, the source gives them in different places. Blank lines part the entries; values can stand above or below the molecule they belong to.
Experiments:
Assay in all cases: FRET or BRET
[1] = molecular target: MHC class I heavy chain (human (endogenous in Kit225/IL-9R and MT-2)) (UniProt P04439)
[2] = molecular target: MHC class II glycoprotein (HLA-DR) (human (endogenous in Kit225/IL-9R and MT-2))
[3] = molecular target: MHC class I heavy chain (human (endogenous in Kit225/IL-9R and MT-2)) (UniProt P04439); remark: listed apart in the source
[4] = molecular target: MHC class II glycoprotein (HLA-DR) (human (endogenous in Kit225/IL-9R and MT-2)); remark: listed apart in the source

FRET efficiency E (%) [1]: 21.7%
FRET efficiency E (%) [2]: 21.9%
FRET efficiency E (%) [3]: 22.5%
FRET efficiency E (%) [4]: 11.9%
Molecule: IL-2 receptor α chain (IL-2Rα) (from UniProt P01589 22-272)

FRET efficiency E (%) [1]: 17.2%
FRET efficiency E (%) [2]: 15.9%
B1: interleukin-9 receptor α-subunit (IL-9Rα), stably transfected in Kit225/IL-9R cells (receptor)
chain: SVTGEGQGPRSRTFTCLTNNILRIDCHWSAPELGQGSSPWLLFTSNQAPGGTHKCILRGSECTVVLPPEAVLVPSDNFTITFHHCMSGREQVSLVDPEYLPRRHVKLDPPSDLQSNISSGHCILTWSISPALEPMTTLLSYELAFKKQEEAWEQAQHRDHIVGVTWLILEAFELDPGFIHEARLRVQMATLEDDVVEEERYTGQWSEWSQPVCFQAPQRQGPLIPPWGWPGNTLVAVSIFLLLTGPTYLLFKLSPRVKRIFYQNVPSPAMFFQPLYSVHNGNFQTWMGAHGAGVLLSQDCAGTPQGALEPCVQEATALLTCGPARPWKSVALEEEQEGPGTRLPGNLSSEDVLPAGCTEWRVQTLAYLPQEDWAPTSLTRPAPPDSEGSRSSSSSSSSNNNNYCALGCYGGWHLSALPGNTQSSGPIPALACGLSCDHQGLETQQGVAWVLAGHCQRPGLHEDLQGMLLPSVLSKARSWTF

FRET efficiency E (%) [1]: 13.5%
FRET efficiency E (%) [2]: 10.2%
B2: interleukin-9 receptor α-subunit (IL-9Rα), endogenous in MT-2 cells (receptor)
chain: B1 chain

Source: publication PMC4457943
